Results as given in patent US20090136503A1 (BEIJING COTIMES BIOTECH, published 2009).
Where two headings read alike, the source gives them in different places.

Experiments:
[1] = molecular target: T1, TRAIL-R2 on the surface of human tumor cells (human, UniProt O14763 56-440); test: cell-based or functional assay
[2] = molecular target: T1, TRAIL-R2 on the surface of human tumor …; test: cell-based or functional assay; remark: listed apart in the source
[3] = molecular target: Human IgG1 (control antigen) (human); test: ELISA; human IgG1 captured on goat anti-human IgG, antibody at 2 µg/ml
[4] = molecular target: T2, TRAIL-R3-Fc fusion protein (human, UniProt O14798 26-221, limits assumed); test: ELISA: plate coated with TRAIL-R3-Fc at 1 µg/ml, HRP goat anti-mouse IgG, TMB
T2 construct: The origin of the protein is not described; also called TRAIL-R3-Fc fusion antigen; not shown: human IgG1 Fc
T2 sequence (looked up): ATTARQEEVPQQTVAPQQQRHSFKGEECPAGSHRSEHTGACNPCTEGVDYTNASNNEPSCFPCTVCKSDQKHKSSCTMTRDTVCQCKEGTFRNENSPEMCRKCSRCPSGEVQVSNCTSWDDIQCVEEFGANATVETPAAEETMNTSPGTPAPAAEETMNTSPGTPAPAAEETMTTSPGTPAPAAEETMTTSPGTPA

[5] = molecular target: T3, TRAIL-R4-Fc fusion protein (human, UniProt Q9UBN6 56-211); test: ELISA: plate coated with TRAIL-R4-Fc at 1 µg/ml, HRP goat anti-mouse IgG, TMB
T3 construct: The origin of the protein is not described; also called TRAIL-R4-Fc fusion antigen; not shown: human IgG1 Fc
T3 sequence (looked up): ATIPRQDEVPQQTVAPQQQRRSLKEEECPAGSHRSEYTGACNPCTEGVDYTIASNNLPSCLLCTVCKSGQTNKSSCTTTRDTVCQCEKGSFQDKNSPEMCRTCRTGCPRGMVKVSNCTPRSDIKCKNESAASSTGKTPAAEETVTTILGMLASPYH

[6] = molecular target: T4, TRAIL-R1-Fc fusion protein (human, UniProt O00220 24-239); test: ELISA: plate coated with TRAIL-R1-Fc at 1 µg/ml, HRP goat anti-human kappa, TMB
T4 construct: extracellular domain; also called TRAIL-R1-Fc fusion antigen; not shown: Fc portion of human IgG1

[7] = molecular target: T2, TRAIL-R3-Fc fusion protein; test: ELISA: plate coated with TRAIL-R3-Fc at 1 µg/ml, HRP goat anti-human kappa, TMB
[8] = molecular target: T3, TRAIL-R4-Fc fusion protein; test: ELISA: plate coated with TRAIL-R4-Fc at 1 µg/ml, HRP goat anti-human kappa, TMB
[9] = molecular target: T5, BSA (bovine serum albumin), negative control (bovine, UniProt P02769 25-607); test: ELISA: plate coated with BSA (control) at 1 µg/ml, HRP goat anti-human kappa, TMB
T5 sequence (P02769 25-607 limits assumed): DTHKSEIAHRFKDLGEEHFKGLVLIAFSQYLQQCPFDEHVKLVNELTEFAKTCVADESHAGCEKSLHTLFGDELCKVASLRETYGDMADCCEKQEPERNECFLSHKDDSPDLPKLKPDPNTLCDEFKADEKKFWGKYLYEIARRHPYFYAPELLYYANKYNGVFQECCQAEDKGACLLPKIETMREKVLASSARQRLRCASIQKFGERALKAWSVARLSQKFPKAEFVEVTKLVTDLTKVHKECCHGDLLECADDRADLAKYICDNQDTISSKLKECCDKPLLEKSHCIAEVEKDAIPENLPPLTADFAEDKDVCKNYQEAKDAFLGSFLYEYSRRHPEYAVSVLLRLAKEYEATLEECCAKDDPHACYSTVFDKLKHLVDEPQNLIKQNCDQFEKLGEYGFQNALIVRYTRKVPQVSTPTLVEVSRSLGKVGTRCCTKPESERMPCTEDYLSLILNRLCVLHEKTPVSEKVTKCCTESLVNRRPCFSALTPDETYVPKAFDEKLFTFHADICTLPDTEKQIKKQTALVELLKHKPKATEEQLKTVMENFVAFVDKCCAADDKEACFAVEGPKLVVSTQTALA

[10] = molecular target: T6, Heterodimeric TRAIL-R1-Fc/TRAIL-R2-Fc fusion protein (human, UniProt O00220 24-239; O14763 56-210); test: ELISA: plate coated with TRAIL-R1/TRAIL-R2-Fc heterodimer at 1 µg/ml, HRP goat anti-human kappa, TMB
T6 construct: extracellular domain; also called TRAIL-R1/TRAIL-R2 dimer; TRAIL-R1/TRAIL-R2 heterodimer antigen; not shown: Fc portion of human IgG1

[11] = molecular target: TRAIL-R1 and/or TRAIL-R2 on human cancer cells; test: cell-based or functional assay
[12] = molecular target: T3, TRAIL-R4-Fc fusion protein; test: ELISA: plate coated with TRAIL-R4-Fc at 1 µg/ml, HRP goat anti-mouse IgG1, TMB
[13] = molecular target: T5, BSA (bovine serum albumin), negative …; test: ELISA: plate coated with BSA (control) at 1 µg/ml, HRP goat anti-mouse IgG1, TMB
[14] = molecular target: T4, TRAIL-R1-Fc fusion protein; test: ELISA: plate coated with TRAIL-R1-Fc at 1 µg/ml, CTB003 titrated, HRP anti-mouse IgG, TMB, OD 450/650
[15] = molecular target: T2, TRAIL-R3-Fc fusion protein; test: ELISA: plate coated with TRAIL-R3-Fc at 1 µg/ml, CTB003 titrated, HRP anti-mouse IgG, TMB, OD 450/650
[16] = molecular target: T6, Heterodimeric TRAIL-R1-Fc/TRAIL-R2-Fc …; test: ELISA: plate coated with TRAIL-R1/TRAIL-R2-Fc heterodimer at 1 µg/ml, CTB003 titrated, HRP anti-mouse IgG, TMB, OD 450/650
[17] = molecular target: T4, TRAIL-R1-Fc fusion protein; test: ELISA: plate coated with TRAIL-R1-Fc at 1 µg/ml, HRP goat anti-human kappa, TMB; remark: listed apart in the source
[18] = molecular target: T2, TRAIL-R3-Fc fusion protein; test: ELISA: plate coated with TRAIL-R3-Fc at 1 µg/ml, HRP goat anti-human kappa, TMB; remark: listed apart in the source
[19] = molecular target: T3, TRAIL-R4-Fc fusion protein; test: ELISA: plate coated with TRAIL-R4-Fc at 1 µg/ml, HRP goat anti-human kappa, TMB; remark: listed apart in the source
[20] = molecular target: T5, BSA (bovine serum albumin), negative …; test: ELISA: plate coated with BSA (control) at 1 µg/ml, HRP goat anti-human kappa, TMB; remark: listed apart in the source
[21] = molecular target: T6, Heterodimeric TRAIL-R1-Fc/TRAIL-R2-Fc …; test: ELISA: plate coated with TRAIL-R1/TRAIL-R2-Fc heterodimer at 1 µg/ml, HRP goat anti-human kappa, TMB; remark: listed apart in the source
[22] = molecular target: TRAIL-R1 on the surface of human tumor cells (human, UniProt O00220 24-468); test: cell-based or functional assay
[23] = molecular target: T2, TRAIL-R3-Fc fusion protein; test: ELISA: plate coated with TRAIL-R3-Fc at 1 µg/ml, HRP goat anti-human kappa, TMB; remark: listed apart in the source
[24] = molecular target: T3, TRAIL-R4-Fc fusion protein; test: ELISA: plate coated with TRAIL-R4-Fc at 1 µg/ml, HRP goat anti-human kappa, TMB; remark: listed apart in the source
[25] = molecular target: T5, BSA (bovine serum albumin), negative …; test: ELISA: plate coated with BSA (control) at 1 µg/ml, HRP goat anti-human kappa, TMB; remark: listed apart in the source

B1: CTB006 murine monoclonal antibody against TRAIL-R2 (hybridoma CGMCC 1691) (antibody, V domains shown)
VH: QVQLQQPGPELVKPGASVRMSCKASGYTFTSYFIHWVKQRPGQGLEWIGWIYPGNVNTKYSEKFKGKATLTADKSSSTAYMQFSSLTSEDSAVYFCARGEAGYFDYWGQGTTLTVSS
VL: DIVMTQSHKFMSTSVGDRVSITCKASQDVSTAVAWYQQKPGQSPRLLIYWASTRHTGVPDRFTGSGSGTDYTLTISSVQAEDQALYYCQQHYRTPWTFGGGTKLEIK
notes: Murine monoclonal antibody; also called Anti-TRAIL-R2 (CTB006); CTB006-HRP
How did the “IC50 (ng/ml), killing of Carov 3 cells, ATPLite cell viability” value [1] turn out when B1 was run?
Its value is 17.4 ng/mL.

And the “IC50 (ng/ml), killing of Colo205 cells, ATPLite cell viability” value [1]?
Its value is 5.8 ng/mL.

And the “IC50 (ng/ml), killing of Du145 cells, ATPLite cell viability” value [1]?
Its value is 55.6 ng/mL.

What about the “IC50 (ng/ml), killing of H-2122 cells, ATPLite cell viability” value [1] of the same binder?
The value was 44.1 ng/mL.

And the “IC50 (ng/ml), killing of MDA231 cells, ATPLite cell viability” value [1]?
Its value is 2.2 ng/mL.

What about the “IC50 (ng/ml), killing of MIAcap cells, ATPLite cell viability” value [1] of the same binder?
The value was 9.5 ng/mL.

What about the “IC50 (read off the curve); cell viability (%) of Jurkat cells, ATPLite, 16 h” value [2] of the same binder?
Its value is ~0.01 µg/mL.

What about the OD 450 nm/650 nm [3] of the same binder?
Its OD 450 nm/650 nm is 0.028 OD.

Does B1 bind [4]?
Result: no binding (tested: 1000 ng/ml)

Does B1 bind [5]?
Result: no binding (tested: 1000 ng/ml)

B2: Human chimeric CTB006 (mouse-human chimeric antibody) (antibody, V domains shown)
VH: EVQLQQSGPELVKPGASVRMSCKASGYTFTSYFIHWVKQRPGQGLEWIGWIYPGNVNTKYSEKFKGKATLTADKSSSTAYMQFSSLTSEDSAVYFCARGEAGYFDYWGQGTTLTVSS
VL: DIVMTQSHKFMSTSVGDRVSITCKASQDVSTAVAWYQQKPGQSPRLLIYWASTRHTGVPDRFTGSGSGTDYTLTISSVQAEDQALYYCQQHYRTPWTFGGGTKLEIKR
notes: Human IgG1 / kappa constant regions, made in CHO cells; also called hCTB006; HuCTB006
Which results are given for B2?
IC50 (ng/ml), killing of Carov 3 cells, ATPLite cell viability [1]: 18.5 ng/mL; IC50 (ng/ml), killing of Colo205 cells, ATPLite cell viability [1]: 6.2 ng/mL; IC50 (ng/ml), killing of Du145 cells, ATPLite cell viability [1]: 52.3 ng/mL; IC50 (ng/ml), killing of H-2122 cells, ATPLite cell viability [1]: 42.1 ng/mL; IC50 (ng/ml), killing of MDA231 cells, ATPLite cell viability [1]: 1.5 ng/mL; IC50 (ng/ml), killing of MIAcap cells, ATPLite cell viability [1]: 10.1 ng/mL; binding result [6]: no binding (tested: 1000 ng/ml); binding result [7]: no binding (tested: 1000 ng/ml); binding result [8]: no binding (tested: 1000 ng/ml); binding result [9]: no binding (tested: 1000 ng/ml); binding result [10]: binds

B3: CTB003 murine monoclonal antibody (hybridoma CGMCC 1665) (antibody, mouse IgG1, V domains shown)
VH: EVHLVESGGGLVRPGGSLKLSCAASGFAFSSYDMSWVRQTPEKRLEWVAYISDGGGITYYPDTMKGRLTISRDNAKNTLSLQMSSLKSEDTAMYYCARHITMVVGPFAYWGQGTLVTVSA
VL: DIQMTQSSSSFSVSLGDRVTITCKAGEDIYNRLAWYQQKPGNAPRLLISGATNLETGVPSRFSGSGSGKDYTLSITSLQTEDVATYYCQQYWSTPLTFGAGTKLELK
notes: also called murine CTB003; parental murine CTB003
What does the source list for B3?
IC50 (ng/ml), killing of Carov 3 cells, ATPLite cell viability [11]: 24.6 ng/mL; IC50 (ng/ml), killing of Colo205 cells, ATPLite cell viability [11]: 7.1 ng/mL; IC50 (ng/ml), killing of Du145 cells, ATPLite cell viability [11]: 25.3 ng/mL; IC50 (ng/ml), killing of H-2122 cells, ATPLite cell viability [11]: 28.5 ng/mL; IC50 (ng/ml), killing of MDA231 cells, ATPLite cell viability [11]: 3.8 ng/mL; IC50 (ng/ml), killing of MIAcap cells, ATPLite cell viability [11]: 13.2 ng/mL; IC50 (read off the curve); cell viability (%) of Jurkat cells, ATPLite, 16 h [2]: ~0.02 µg/mL; binding result [12]: no binding (tested: 1000 ng/ml); binding result [13]: no binding (tested: 1000 ng/ml); EC50 (read off the curve) [14]: ~0.02 µg/mL; binding result [15]: no binding (tested: 10^4 ng/ml); EC50 (read off the curve) [16]: ~0.02 µg/mL

B4: Human chimeric CTB003 (mouse-human chimeric antibody) (antibody, human IgG1, V domains shown)
VH: EVHLVESGGGLVRPGGSLKLSCAASGFAFSSYDMSWVRQTPEKRLEWVAYISDGGGITYYPDTMKGRFTISRDNAKNTLSLQMSSLKSEDTAMYYCARHITMVVGPFAYWGQGTLVTVSA
VL: DIQMTQSSSSFSVSLGDRVTITCKASEDIYNRLAWYQQKPGNAPRLLISGATSLETGVPSRFSGSGSGKDYTLSITSLQTEDVATYYCQQYWSTPLTFGAGTKLELKR
notes: Human IgG1 / kappa constant regions, made in CHO cells; also called hCTB003; HuCTB003
Does B4 bind [17]?
Result: binds

Does B4 bind [18]?
Result: no binding (tested: 1000 ng/ml)

Does B4 bind [19]?
Result: no binding (tested: 1000 ng/ml)

Does B4 bind [20]?
Result: no binding (tested: 1000 ng/ml)

Does B4 bind [21]?
Result: binds

B5: Human chimeric CTB007 (mouse-human chimeric antibody) (antibody, V domains shown)
VH: EVQLQQSGAELVKPGASVKLSCTASGFNIKDTYMHWVKQRPEQGLEWIGRIDPANGNTKYDPKFQGKATITADTSSNTAYLQLSSLTSEDTAVYYCAYYYVSNAWFTYWGQGTLVTVSA
VL: DIQMTQSPASLSVSVGETVTITCRASENIYSNLEWYQQKQGKSPQLLVYAATNLADGVPSRFSGSGSGTQYSLKINSLQSEDFGSYYCQHFWGTWTFGGGTKLEIKR
notes: Human IgG1 / kappa constant regions, made in CHO cells; also called hCTB007; HuCTB007
For B5, which “IC50 (ng/ml), killing of Carov 3 cells, ATPLite cell viability” value [22] is on record?
The value was 31.6 ng/mL.

And the “IC50 (ng/ml), killing of Colo205 cells, ATPLite cell viability” value [22]?
Its value is 5.9 ng/mL.

What about the “IC50 (ng/ml), killing of Du145 cells, ATPLite cell viability” value [22] of the same binder?
Its value is 28.6 ng/mL.

What about the “IC50 (ng/ml), killing of H-2122 cells, ATPLite cell viability” value [22] of the same binder?
Its value is 22.5 ng/mL.

What about the “IC50 (ng/ml), killing of MDA231 cells, ATPLite cell viability” value [22] of the same binder?
Its value is 7.5 ng/mL.

What about the “IC50 (ng/ml), killing of MIAcap cells, ATPLite cell viability” value [22] of the same binder?
Its value is 8.8 ng/mL.

Does B5 bind [23]?
Result: no binding (tested: 1000 ng/ml)

Does B5 bind [24]?
Result: no binding (tested: 1000 ng/ml)

Does B5 bind [25]?
Result: no binding (tested: 1000 ng/ml)
